Reference: patent US20250333497A1 (University of California, published 2025)
Where a chain is given by its changes, count along the chain named.

T1: Full length PLXDC1 (PLXDC1-Full) (Homo sapiens (Human), UniProt Q8IUK5 19-500)
T1 construct: also called full PLXDC1 protein
T1 sequence: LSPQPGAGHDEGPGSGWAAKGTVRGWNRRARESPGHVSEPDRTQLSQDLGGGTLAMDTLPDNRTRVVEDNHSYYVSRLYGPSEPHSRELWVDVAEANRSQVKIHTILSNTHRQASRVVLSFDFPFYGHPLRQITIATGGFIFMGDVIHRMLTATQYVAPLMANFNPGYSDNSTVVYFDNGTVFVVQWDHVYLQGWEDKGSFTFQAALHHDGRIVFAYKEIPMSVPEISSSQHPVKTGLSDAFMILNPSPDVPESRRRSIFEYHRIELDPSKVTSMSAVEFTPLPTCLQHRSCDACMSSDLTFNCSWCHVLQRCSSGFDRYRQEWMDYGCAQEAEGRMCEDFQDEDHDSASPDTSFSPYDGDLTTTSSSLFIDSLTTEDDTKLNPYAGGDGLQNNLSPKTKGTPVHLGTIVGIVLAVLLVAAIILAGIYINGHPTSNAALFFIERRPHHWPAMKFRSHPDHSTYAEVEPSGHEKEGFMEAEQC

B1: A006 (antibody, V domains shown)
VH: QVQLVQSGAEVKKPGSSVKVSCKASGGTFSTEYISWVRQAPGQGLEWMGRIIPVLGITNYAQKFQGRVTITADESTSTAYMELSSLRSEDTAVYYCARHLGPPYLVTYSHGFDVWGQGTLVTVSS
VL: EIVMTQSPATLSVSPGERATLSCRASQSLGTNLAWYQQKPGQAPRLLIYGASTRATGIPARFSGSGSGTEFTLTISSLQSEDFAVYYCQQYYEAPPTFGQGTKVEIK
notes: VH/VL only; also called 3-G7
B2: A007 (antibody, V domains shown)
VH: EVQLLESGGGLVQPGGSLRLSCAASGFTFRNYAMSWVRQAPGKGLEWVSSISGGGINTYYADSVKGRFTISRDNSKNTLYLQMNSLRAEDTAVYYCARVRSYSGPGYFDYWGQGTLVTVSS
VL: B1 VL with E17D, Q27R, L29V, G30S, T31S, E93N, A94W, P96L
notes: VH/VL only; also called 8-A7
B3: A002 (antibody, V domains shown)
VH: EVQLLESGGGLVQPGGSLRLSCAASGFTFKNYAMSWVRQAPGKGLEWVSAISASGGYTYYADSVKGRFTISRDNSKNTLYLQMNSLRAEDTAVYYCARGRWGAFDYWGQGTLVTVSS
VL: QSVLTQPPSVSGAPGQRVTISCTGSSSNIGSGYDVHWYQQLPGTAPKLLIYGNRNRPSGVPDRFSGSKSGTSASLAITGLQAEDEADYYCQSYDSSLKTWVFGGGTKLTVL
notes: VH/VL only; also called 4-A8
B4: A001 (antibody, V domains shown)
VH: EVQLLESGGGLVQPGGSLRLSCAASGFTFSSYAMSWVRQAPGKGLEWVSTIYASGATTYYADSVKGRFTISRDNSKNTLYLQMNSLRAEDTAVYYCARLKLYHAAFDIWGQGTLVTVSS
VL: DIQMTQSPSSLSASVGDRVTITCRASQDISSYLNWYQQKPGKAPKLLIYTASSLQSGVPSRFSGSGSGTDFTLTISSLQPEDFATYYCQQSYSYPLTFGQGTKVEIK
notes: VH/VL only; also called 3-C11
B5: A003 (antibody, V domains shown)
VH: QVQLVESGGGVVQPGRSLRLSCAASGFTFRDYGMHWVRQAPGKGLEWVAVISYHGRNEYYANSVKGRFTISRDNSKNTLYLQMNSLRAEDTAVYYCARGAYGDDFDVWGQGTLVTVSS
VL: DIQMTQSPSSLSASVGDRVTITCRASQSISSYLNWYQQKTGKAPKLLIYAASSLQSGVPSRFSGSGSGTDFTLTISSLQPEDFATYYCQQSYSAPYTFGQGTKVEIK
notes: VH/VL only; also called 5-E2
B6: A005 (antibody, V domains shown)
VH: B5 VH with R30S, H54D, R56S, N57R, E58K, A100S, G102S, D104G
VL: B4 VL with D28S, S31R, P40T, T50G, Y94T, L96Y
notes: VH/VL only; also called 3-G6
B7: A004 (antibody, V domains shown)
VH: B5 VH with R30S, H54E, R56S, N62D, A100S, Y101E, D103S, D104G
VL: B4 VL with D28R, S31N, T50A, Y94P, L96Y
notes: VH/VL only; also called 2-H2

The binders below were run against T1, Full length PLXDC1 (PLXDC1-Full) (assay: staining of transfected cells (FIG. 3-4)).
Description: (§1) Both full length PLXDC1 and Domain A deleted PLXDC1 (PLXDC1-dA) have an epitope tag on the N-terminus.
B1: binds. B2: binds. B3: binds. B4: binds. B5: binds. B6: binds. B7: binds.

The binders below were run against T2, domain A-deleted PLXDC1 (PLXDC1-dA) (Homo sapiens (Human), UniProt Q8IUK5 128-500) (assay: staining of transfected cells (FIG. 3C-H)).
T2 construct: also called mutant with Domain A deleted
Description: as §1
B3: no binding. B4: no binding. B5: no binding.

The binders below were run against T2, domain A-deleted PLXDC1 (PLXDC1-dA) (assay: staining of transfected cells (FIG. 4A-H)).
Description: as §1
B1: no binding. B2: no binding. B6: no binding. B7: no binding.
